Measured values published in patent publication US5928915A, “CHO cell sialidase by recombinant DNA technology” (Genentech, Inc., priority 1997, dated 1999).

How the values were obtained:
Assay in all cases: Sialidase kinetic constants with soluble sialylglycoconjugate substrates
Type in all cases: biochemical, Chinese hamster
Conditions in all cases: other: apparent; standard assay conditions; average of duplicates, relative error about 10%; 37.0 °C
[1] = substrate: CC(=O)N[C@H]1[C@H]([C@H](O)[C@H](O)CO)O[C@@](OC[C@H]2O[C@@H](O[C@H]3[C@H](O)[C@@H](O)C(O)O[C@@H]3CO)[C@H](O)[C@@H](O)[C@H]2O)(C(=O)O)C[C@@H]1O
Description: (§1) Fluorescent sialidase assays: Standard assay conditions for monitoring the enzyme activity during purification using the fluorescent substrate analog are: 1.3 mM 4-MUNeu5Ac, 50 mM phosphate buffer, pH 6.8, 0.3 mg bovine serum albumin and varying amounts of enzyme in a total volume of 30 μl. After addition of enzyme the samples are incubated at 37° C. in a shaking water bath for 5 minutes. The reaction is terminated and the fluorescence of the liberated umbelliferone is enhanced by the addition of 2 ml of 80 mM glycine-carbonate buffer, pH 9.7. Quantification of the product is made by measuring the fluorescence of the samples with excitation at 365 nm and emission at 450 nm using a standard of 4-methyl umbelliferone. A unit of enzyme activity is defined as a μmol/min of sialic acid liberated.
(§2) Sialidase assays with natural substrates: When natural substrates are tested with the purified enzyme, the amount of released sialic acid is measured using the thiobarbituric acid assay as modified by Uchida [Uchida et al. J. Biochem., 82:1425 (1977)] using sialic acid as standard. The amount of sialic acid in control samples, which include a complete assay mixture incubated without added enzyme is subtracted from each determination. All samples are cleared by centrifugation (1,000×G, 10 min) prior to determining the absorbance at 540 nm.
(§3) Enzyme kinetic parameters: Assay conditions (time and added enzyme) are modified for each substrate so that initial reaction rates are measured. Kinetic parameters are obtained from double reciprocal plots of the substrate saturation curves [Segel, I. H. John Wiley, New York, Enzyme Kinetics, 18 (1975)].

[2] = substrate: CC(=O)N[C@H]1[C@H]([C@H](O)[C@H](O)CO)O[C@@](O[C@H](CO)[C@@H](O)[C@@H]2OC(O)(C(=O)O)C[C@H](O)[C@H]2NC(C)=O)(C(=O)O)C[C@@H]1O
Description: as §1, §2, §3

[3] = substrate: CC(=O)N[C@H]1[C@H]([C@H](O)[C@H](O)CO)O[C@@](O[C@H]2[C@@H](O)[C@@H](CO)O[C@@H](O[C@H]3[C@H](O)[C@@H](O)C(O)O[C@@H]3CO)[C@@H]2O)(C(=O)O)C[C@@H]1O
Description: as §1, §2, §3

[4] = substrate: CC(=O)N[C@H]1[C@H]([C@H](O)[C@H](O)CO)O[C@@](Oc2ccc3c(C)cc(=O)oc3c2)(C(=O)O)C[C@@H]1O
Description: as §1, §2, §3

B1: CHO cell sialidase (Cricetulus griseus) (protein)
chain: MATCPVLQKETLFQTGDYAYRIPALIYLSKQKTLLAFAEKRLTKTDEHADLFVLRRGSYNADTHQVQWQAEEVVTQAYLEGHRSMSPCPLYDKQTRTLFLFFIAVRGQISEHHQLQTGVNVTRLCHITSTDHGKTWSAVQDLTDTTIGSTHQDWATFGVGPGHCLQLRNTAGSLLVPAYAYRKQPPIHAPAPSAFCFLSHDHGSTWELGHFVSQNSLECQVAEVGTGAERVVYLNARSCLGARVQAQSPNSGLDFQDNQVVSKLVEPPKGCHGSVIAFPNPTSKADALDVWLLYTHPTDSRKRTNLGVYLNQKPLDPTTWSAPTLLATGICAYSDLQNMGHGPDGSPQFGCLYESNNYEEIVFLMFTLKQAFPAVFGAQ
notes: The sialidase described was purified from the cell culture fluid of a single production cell line (CHO 14.16); endogenous in cells; host or cells: CHO 14.16 cells (purified from the cell culture fluid)
B1 showed a Km [1] of 1200 µM, a Vmax [1] of 4 µmol/min/mg and a Km [2] of 3400 µM. For the same protein, the Vmax [2] was 11 µmol/min/mg, the Km [3] was 1300 µM and the Vmax [3] was 16 µmol/min/mg. For the same protein, the Km [4] was 400 µM and the Vmax [4] was 18 µmol/min/mg.
